From patent US20260184815A1

Key:
[1] = biological target: pKal catalytic domain Mutant 4 (human) (UniProt P03952); assay: equilibrium Ki,app, fluorogenic substrate, tight binding fit
[2] = biological target: pKal catalytic domain Mutant 4 (human) (UniProt P03952); assay: equilibrium Ki,app, enzyme inhibition with fluorogenic substrate, tight binding fit

pKal catalytic domain Mutant 4 (human), sequence (P03952 391-638, change not shown): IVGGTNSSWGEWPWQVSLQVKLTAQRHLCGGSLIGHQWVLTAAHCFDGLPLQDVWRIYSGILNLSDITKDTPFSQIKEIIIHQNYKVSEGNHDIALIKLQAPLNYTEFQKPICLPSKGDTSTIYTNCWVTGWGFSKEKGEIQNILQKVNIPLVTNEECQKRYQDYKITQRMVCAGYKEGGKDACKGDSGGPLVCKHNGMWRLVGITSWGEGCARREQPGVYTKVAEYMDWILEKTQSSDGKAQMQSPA

B1: DX-2922 (antibody, V domains shown)
VH: EVQLLESGGGLVQPGGSLRLSCAASGFTFSHYLMTWVRQAPGKGLEWVSYISPSGGHTIYADSVKGRFTISRDNSKNTLYLQMNSLRAEDTAVYYCARVARGIAARSRTSYFDYWGQGTLVTVSS
VL: EIVLTQSPGTLSLSPGERATLSCRTSQFVNSNYLAWYQQKPGQAPRLLIYGASSRATGIPDRFSGSGSGTDFTLTISRLEPEDFAVYYCQQSSRTPWTFGQGTKVEIK
Ki [1]: 0.25 nM | Ki [2]: 0.25 nM

B2: X115-B07 (antibody, V domains shown)
VH: EVQLLESGGGLVQPGGSLRLSCAASGFTFSHYLMTWVRQAPGKGLEWVSYISPSGGHTIYADSVKGRFTISRDNSKNTLYLQMNSLRAEDTAVYYCAMVGQGIRGRSRTSYFAQWGQGTLVTVSS
VL: EIVLTQSPGTLSLSPGERATLSCRTSQFVNSNYLAWYQQKPGQAPRLLIYGASSRATGIPDRFSGSGSGTDFTLTISRLEPEDFAVYYCQQSSRTPWTFGQGTKVEIK
Ki [1]: 0.14 nM | Ki [2]: 0.14 nM

B3: X115-A03 (antibody, V domains shown)
VH: EVQLLESGGGLVQPGGSLRLSCAASGFTFSHYIMMWVRQAPGKGLEWVSGIYSSGGITVYADSVKGRFTISRDNSKNTLYLQMNSLRAEDTAVYYCAWRRIGVPRRDSFDMWGQGTMVTVSS
VL: DIQMTQSPSTLSASVGDRVTITCRASQSISSWLAWYQQKPGKAPKLLIYKASTLESGVPSRFSGSGSGTEFTLTISSLQPDDFATYYCQQYNTYWTFGQGTKVEIK
Ki [1]: 0.13 nM | Ki [2]: 0.13 nM

B4: X115-D01 (antibody, V domains shown)
VH: EVQLLESGGGLVQPGGSLRLSCAASGFTFSIYSMHWVRQAPGKGLEWVSSIYPSRGMTWYADSVKGRFTISRDNSKNTLYLQMNSLRAEDTAVYYCAYRRTGIPRRDAFDIWGQGTMVTVSS
VL: DIQMTQSPSTLSASVGDRVTITCRASQSISSWLAWYQQKPGKAPKLLIYKASTLESGVPSRFSGSGSGTEFTLTISSLQPDDFATYYCQQYNTYWTFGQGTKVEIK
Ki [1]: 0.12 nM | Ki [2]: 0.12 nM

B5: X115-F02 (Fab, V domains shown)
VH: EVQLLESGGGLVQPGGSLRLSCAASGFTFSHYIMMWVRQAPGKGLEWVSGIYSSGGITVYADSVKGRFTISRDNSKNTLYLQMNSLRAEDTAVYYCAYRRIGVPRRDEFDIWGQGTMVTVSS
VL: DIQMTQSPSTLSASVGDRVTITCRASQSISSWLAWYQQKPGKAPKLLIYKASTLESGVPSRFSGSGSGTEFTLTISSLQPDDFATYYCQQYNTYWTFGQGTKVEIK
Ki [1]: 0.1 nM | Ki [2]: 0.1 nM

B6: X115-G04 (antibody, V domains shown)
VH: EVQLLESGGGLVQPGGSLRLSCAASGFTFSHYIMMWVRQAPGKGLEWVSGIYSSGGITVYADSVKGRFTISRDNSKNTLYLQMNSLRAEDTAVYYCAYRRTGVPRRDEFDIWGQGTMVTVSS
VL: DIQMTQSPSTLSASVGDRVTITCRASQSISSWLAWYQQKPGKAPKLLIYKASTLESGVPSRFSGSGSGTEFTLTISSLQPDDFATYYCQQYNTYWTFGQGTKVEIK
Ki [1]: 0.3 nM | Ki [2]: 0.3 nM

B7: M29-D09 (Fab, V domains shown)
VH: EVQLLESGGGLVQPGGSLRLSCAASGFTFSWYTMVWVRQAPGKGLEWVSYIYPSGGATFYADSVKGRFTISRDNSKNTLYLQMNSLRAEDTAVYYCAMGSYDYIWGFYSDHWGQGTLVTVSS
VL: QSALTQPPTVSVSPGQTARITCSGNKLGDKYVAWYQQKPGQSPMLVIYQDTKRPSRVSERFSGSNSANTATLSISGTQALDEADYYCQAWDSSIVIFGGGTRLTVL
Ki [1]: 0.39 nM | Ki [2]: 0.39 nM

B8: M145-D11 (Fab, V domains shown)
VH: EVQLLESGGGLVQPGGSLRLSCAASGFTFSHYRMSWVRQAPGKGLEWVSSIYPSGGRTVYADSVKGRFTISRDNSKNTLYLQMNSLRAEDTAVYYCAKDKFEWRLLFRGIGNDAFDIWGQGTMVTVSS
VL: QSVLTQPPSVSVSPGQTASITCSGDKLGDKYTSWYQQRPGQSPVLVIYQDIKRPSGIPERFSGSNSGNTATLTISGTQAMDEADYYCQAWDSPNARVFGSGTKVTVL
Ki [1]: 0.21 nM | Ki [2]: 0.21 nM

B9: M6-D09 (antibody, V domains shown)
VH: EVQLLESGGGLVQPGGSLRLSCAASGFTFSFYYMVWVRQAPGKGLEWVSVIYPSGGITVYADSVKGRFTISRDNSKNTLYLQMNSLRAEDTAVYYCARDKWAVMPPYYYYAMDVWGQGTTVTVSS
VL: DIQMTQSPSSLSASVGDRVTITCRASQSIRNYLNWYQQKPGKAPNLLIYAASTLQSGVPARFSGSGSGTDFTLTISSLQPEDFATYYCQQLSGYPHTFGQGTKLEIK
Ki [1]: 2.9 nM

B10: M35-G04 (antibody, V domains shown)
VH: EVQLLESGGGLVQPGGSLRLSCAASGFTFSYYHMSWVRQAPGKGLEWVSVISPSGGSTKYADSVKGRFTISRDNSKNTLYLQMNSLRAEDTAVYYCARGGSSDYAWGSYRRPYYFDYWGQGTLVTVSS
VL: DIQMTQSPATLSLSPGERATLSCRASQSVSSYLAWYQQKPGQAPRLLIYDASNRATGIPARFSGSGSGTDFTLTISSLEPEDFAVYYCQQRSNWPRGFTFGPGTKVDIK
Ki [1]: 0.8 nM | Ki [2]: 0.8 nM

B11: M06-D09 (antibody, V domains shown)
VH: EVQLLESGGGLVQPGGSLRLSCAASGFTFSFYYMVWVRQAPGKGLEWVSVIYPSGGITVYADSVKGRFTISRDNSKNTLYLQMNSLRAEDTAVYYCARDKWAVMPPYYYYAMDVWGQGTTVTVSS
VL: DIQMTQSPSSLSASVGDRVTITCRASQSIRNYLNWYQQKPGKAPNLLIYAASTLQSGVPARFSGSGSGTDFTLTISSLQPEDFATYYCQQLSGYPHTFGQGTKLEIK
Ki [2]: 2.9 nM
